Assay results from US20110262386A1, “METHODS OF TREATING INFLAMMATION” (CAROLUS THERPEUTICS, INC., priority 2008, published 2011).

Tests used:
[1] = molecular target: CXCR4-bearing Jurkat cells (Homo sapiens, UniProt P61073)
MonoMac6 cells = assay: Monocytic cell arrest under flow on CHO/ICAM-1 cells; format: cell-based; settings: exposure 2 h, flow conditions
Procedure: (§1) Arrest of calcein-AM (Molecular Probes)-labeled monocytes, T cells and L1.2 transfectants was quantified in parallel-wall chambers in flow (1.5 dynes/cm^2, 5 min) (Schober, A., at al. (2004) Circulation 109, 380-385; Osterman, G., at al. (2002) Nat. Immunol. 3, 151-158; Weber, C., at al. (1996) J. Cell Biol. 134, 1063-1073).

[2] = tested on: primary human effector T cells; assay: T-cell arrest under flow on aortic endothelial cells; format: cell-based; settings: immobilized on aortic endothelial cells
Procedure: as §1

primary human monocytes [3] = assay: Transwell chemotaxis of monocytes; format: cell-based
Procedure: (§2) Pore sizes and intervals were 5 μm and 3 h (monocytes), 3 μm and 1.5 h (T cells), and […] and 1 h (neutrophils).

CCR5 = molecular target: T1, CCR5 (Homo sapiens, UniProt P51681); assay: CCR5 internalization in L1.2 CCR5 transfectants; format: cell-based
T1 construct: host or cells: L1.2 pre-B lymphoma cells
Procedure: (§3) Internalization was calculated relative to surface expression of buffer-treated cells (100% control) and isotype control staining (0% control): geometric MFI[experimental]−MFI[0% control]/MFI[100% control]−MFI[0% control]×100.

primary human monocytes [4] = assay: Monocyte arrest under flow on human aortic endothelial cells; format: cell-based; settings: endothelial cells pretreated 2 h, flow conditions
Procedure: as §1

[5] = tested on: human aortic (or venous) endothelial cells; assay: Real-time PCR and ELISA of arrest chemokines in endothelial cells; format: cell-based; settings: 2-h-long preincubation
Procedure: RNA was reverse-transcribed using oligo-dT primers. RTPCR was performed using QuantiTect Kit with SYBRGreen (Qiagen), specific primers and an MJ Opticon2 (Biozym). CXCL8 was quantified by Quantikine ELISA (R&D).

CXCR2 [6] = assay: Calcium mobilization in L1.2 CXCR2 transfectants; format: cell-based
[7] = tested on: primary human neutrophils; assay: Calcium mobilization in neutrophils (Fluo-4 AM); format: cell-based
[8] = tested on: primary CD3+ T lymphocytes; assay: Transwell chemotaxis of T cells; format: cell-based, human; settings: CD3+ T lymphocytes devoid of CXCR1 and CXCR2
Procedure: as §2

αLβ2 (LFA-1) = assay: αLβ2 integrin activation assay (327C reporter antibody, flow cytometry); format: cell-based; settings: MonoMac6 cells and human blood monocytes; persisted over 30 min
Text: LFA-1 activation analyzed by flow cytometry is reported as the increase in mean fluorescent intensity (MFI) or relative to the positive control (Shamri, R., at al. (2005) Nat. Immunol. 6, 497-506).

CXCR2 [9] = molecular target: T2, CXCR2 (Homo sapiens, UniProt P25025); assay: CXCR2 internalization assay, HEK293-CXCR2; format: cell-based; settings: FACS of surface CXCR2, stable HEK293 transfectants
T2 construct: expressed in transfected cells
T2 sequence (P25025 1-360): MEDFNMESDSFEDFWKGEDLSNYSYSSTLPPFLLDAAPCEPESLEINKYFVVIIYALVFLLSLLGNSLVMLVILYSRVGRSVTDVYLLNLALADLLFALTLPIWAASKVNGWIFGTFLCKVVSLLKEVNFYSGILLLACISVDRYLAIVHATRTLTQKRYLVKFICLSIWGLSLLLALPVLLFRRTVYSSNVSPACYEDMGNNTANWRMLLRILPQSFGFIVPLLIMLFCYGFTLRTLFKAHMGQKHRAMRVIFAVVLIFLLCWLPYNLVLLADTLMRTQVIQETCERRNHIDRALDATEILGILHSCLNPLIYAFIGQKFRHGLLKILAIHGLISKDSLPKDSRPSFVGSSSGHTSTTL
Procedure: as §3

[10] = tested on: postcapillary venules of cremaster muscle; assay: Cremaster microcirculation model, intravital microscopy; format: in vivo, mouse; settings: MIF injected adjacent to the muscle
Procedure: After 4 h, intravital microscopy (Zeiss Axioplan; 20×) was performed in postcapillary venules (Gregory, J. L., at al. (2004) Arthritis Rheum. 50, 3023-3034; Keane, M. P., at al. (2004) J. Immunol. 172, 2853-2860). Adhesion was measured as leukocytes stationary for more than 30 s, emigration as the number of extravascular leukocytes per field.

[11] = tested on: primary human neutrophils; assay: Transwell chemotaxis of neutrophils; format: cell-based
Procedure: as §2

[12] = tested on: mice with wild-type bone marrow; assay: Model of acute peritonitis (MIF-induced); format: in vivo, mouse; settings: after 4 h
Procedure: After 4 h, peritoneal lavage was performed and Gr-1^+CD115^−F4/80^− neutrophils were quantified by flow cytometry using the relevant conjugated antibodies.

[13] = 12 weeks, compared with vehicle controls

T1 sequence (P51681 whole entry): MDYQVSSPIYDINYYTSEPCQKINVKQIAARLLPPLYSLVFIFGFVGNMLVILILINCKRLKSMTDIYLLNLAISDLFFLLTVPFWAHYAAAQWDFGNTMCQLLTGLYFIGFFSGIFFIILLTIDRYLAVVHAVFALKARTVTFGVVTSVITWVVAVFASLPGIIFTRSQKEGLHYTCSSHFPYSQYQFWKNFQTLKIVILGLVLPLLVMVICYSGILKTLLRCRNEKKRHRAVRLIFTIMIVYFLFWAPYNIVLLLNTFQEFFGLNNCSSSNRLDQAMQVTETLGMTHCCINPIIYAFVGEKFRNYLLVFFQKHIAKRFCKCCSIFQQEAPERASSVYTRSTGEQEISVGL
Chain of CXCR4-bearing Jurkat cells (P61073 whole entry): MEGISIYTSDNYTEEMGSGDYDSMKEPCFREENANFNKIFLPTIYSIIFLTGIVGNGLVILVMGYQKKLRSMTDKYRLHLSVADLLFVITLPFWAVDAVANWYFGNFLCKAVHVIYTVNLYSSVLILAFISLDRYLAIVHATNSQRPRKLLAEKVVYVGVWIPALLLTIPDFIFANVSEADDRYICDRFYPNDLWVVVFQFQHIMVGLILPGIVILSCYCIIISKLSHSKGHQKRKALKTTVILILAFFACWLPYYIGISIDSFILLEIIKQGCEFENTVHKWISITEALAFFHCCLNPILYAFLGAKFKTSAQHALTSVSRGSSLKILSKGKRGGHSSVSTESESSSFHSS

With `c1ccc(CNCc2ccc(CN3CCCNCCNCCCNCC3)cc2)nc1` [AMD3465] the “lesion formation in oil red O-stained aortic root sections” value (Apoe−/− mice; [13]) was “significantly exacerbates lesion formation”, the “lesion formation in thoracoabdominal aortas prepared en face” value (Apoe−/− mice; [13]) was “significantly exacerbates lesion formation” and the “relative number of circulating neutrophils” value (Apoe−/− mice; further increases during disease progression) was “expansion in the relative number of circulating neutrophils”. For the same molecule, the peripheral blood leukocytes (Apoe−/− mice; within 2 days, sustained throughout the study period) was “pronounced peripheral blood leukocytosis” and the “effect on specific binding of fluorescein-MIF to CXCR4-bearing Jurkat cells” value [1] was “inhibited”.

In the case of “CXCL8: Chemokine from PeproTech; cognate CXCR2 ligand [reference compound]”, the “monocytic cell arrest on pretreated CHO/ICAM-1 transfectants” value (MonoMac6 cells) is reported as “increased monocytic cell arrest”.

For “CXCL12: Chemokine from PeproTech; known CXCR4 ligand and T-cell chemoattractant [reference compound]”, the “arrest of primary human effector T cells” value [2] was “triggered the arrest”.

B1: MIF: Recombinant MIF, expressed and purified as described; pro-inflammatory cytokine, ligand for CXCR2, CXCR4 and CD74 (protein)
chain: PMFIVNTNVPRASVPDGFLSELTQQLAQATGKPPQYIAVHVVPDQLMAFGGSSEPCALCSLHSIGKIGGAQNRSYSKLLCGLLAERLRISPDRVYINYYDMNAANVGWNNSTFA
B1 was tested, and the “MIF concentration that induced optimal chemotaxis” value (primary human monocytes [3]) was 2 to 4 nM, the “optimum concentration of bell-shaped dose-response curve of monocyte migration” value (primary human monocytes [3]; MIF in lower chamber) was 25 to 50 ng/mL and the CCR5 internalization (CCR5) was “unable to induce CCR5 internalization”. For the same molecule, the “arrest of primary human monocytes on pretreated endothelial cells” value (primary human monocytes [4]) was “substantially increased”, the “upregulation of arrest chemokines known to engage CXCR2 (CXCL1, CXCL8)” value [5] was “failed to upregulate” and the “calcium influx in CXCR2 transfectants” value (CXCR2 [6]) was “dose-dependently induced calcium influx, and was slightly less potent and effective than CXCL8 or CXCL7”. The “calcium influx in neutrophils” value [7] was “induced calcium influx”, the “induction of T-cell transmigration” value [8] was “dose-dependently induced transmigration” and the “earliest time of αLβ2 activation after exposure” value (αLβ2 (LFA-1)) was 1 min. The CXCR2 internalization (CXCR2 [9]) was “induced CXCR2 internalization”, the “arrest of primary human effector T cells” value [2] was “triggered the arrest” and the “leukocyte adhesion and emigration in postcapillary venules” value [10] was “marked increase”. For the same molecule, the “chemotactic activity on neutrophils” value [11] was “exerted CXCR2- but not CXCR1-mediated chemotactic activity”, the “neutrophil recruitment after intraperitoneal injection” value [12] was “elicited neutrophil recruitment” and the “monocytic cell arrest on pretreated CHO/ICAM-1 transfectants” value (MonoMac6 cells) was “increased monocytic cell arrest”.
